Source: patent publication US20210292393A1 (published 2021)
Residue numbers refer to the chain shown, from its start.

B1: antibody 333 (antibody, V domains shown)
VH: QVHLVESGGGVVLPGRSLRLSCSASQFIFSNYDMHWVRQSPGMGLEWVAGISSDGSDKYYIDSVRGRFTISRDNAKNTLFLQMNSLTTEDTAVYSCAKGGGKFGQYWGRGTLVTVSS
VL: AIQMTQSPSSLSASVGDRVTITCRASQVIRNDLAWFQQKPGEAPNLLVYSASNLQSGVPSRFSGSGSGTDFTLTISSLQPEDFATYYCLQDYSYPYTFGQGTKLDMK
B2: antibody 366 (antibody, V domains shown)
VH: QVQLVESGGGVVQPGRSLRLSCAASGFTFSSYAMHWVRQAPGKGLEWVAVISYDGSNKYYADSVKGRFTISRDNSKNTLYLQMNSLRAEDTAVYYCARGLVGYNWFDPWGQGTLVTVSS
VL: DIQMTQSPSSVSASVGDRVTITCRASQGISSWLAWYQQKPGKAPKLLIYAASSLQSGVPSRFSGSGSGTDFTLTISSLQPEDFATYYCQQANSFTFGPGTKVDIK
B3: antibody 329 (antibody, V domains shown)
VH: EVQLVESGGGLVQPGGSLRLSCAASGFTFSSYWMHWVRQAPGKGLVWVSRINSDGSSTSYADSVKGRFTISRDNAKNTLYLQMNSLRAEDTAVYYCAREGIVATITLDYWGQGTLVTVSS
VL: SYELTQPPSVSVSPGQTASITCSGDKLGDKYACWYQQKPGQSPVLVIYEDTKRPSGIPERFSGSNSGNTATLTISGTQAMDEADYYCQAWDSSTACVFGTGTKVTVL
B4: antibody 365 (antibody, V domains shown)
VH: QVQLVESGGGVVQPGRSLRLSCAASGFNLSSYAMHWVRQASGKGLEWVSLISYDGSIKYYTDSVKGRFTVSGDNSKNTLFLQMNSLRPDDSALYYCVRGGVSGPNSFDMWGQGTTVTVSS
VL: DVVMTQSPLSLPVTLGQPASISCRSSQSLVYSDGNTYVNWFQQRPGQSPRRLIYKVSIRASGVPDRFSGSGSGTDFALKISRVEAEDVGVYYCMQGTHWPVTFGQGTKVEIK
B5: antibody 327 (antibody, V domains shown)
VH: B4 VH with S31N
VL: B4 VL with K55Q, V90I
B6: antibody 344 (antibody, V domains shown)
VH: QVQLVESGGGVVQPGRSLRLSCAASGFTFSSYAMHWVRQAPGKGLEWMAVISYDGSNKYYADSVKGRFTISRDNSKNTLYLQMNSLRAEDTAVYFCAKGYSGSYYEPFDYWGQGTLVTVSS
VL: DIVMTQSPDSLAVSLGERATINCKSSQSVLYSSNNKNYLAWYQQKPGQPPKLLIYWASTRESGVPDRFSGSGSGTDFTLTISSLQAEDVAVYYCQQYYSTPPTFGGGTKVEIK
B7: antibody 363 (antibody, V domains shown)
VH: EVQLLESGGGLVQPGGSLRLSCAASGFTFSTYAMSWVRQAPGKGLEWVSAISGSGGSTYYADSVKGRFTISRDNSKNTLYLQMNSLRAEDTAVYYCASGYSPDYWGQGTLVTVSS
VL: not shown
B8: antibody 348 (antibody, V domains shown)
VH: QVQLVQSGSELKKPGASVKVSCKASGYTFTSYAMNWVRQAPGQGLEWMGWINTNTGNPTYAQGFTGRFVFSLDTSVSTAYLQISSLKAEDTAVYYCARDHELPNTSSWFGHFEYWGQGTLVTVSS
VL: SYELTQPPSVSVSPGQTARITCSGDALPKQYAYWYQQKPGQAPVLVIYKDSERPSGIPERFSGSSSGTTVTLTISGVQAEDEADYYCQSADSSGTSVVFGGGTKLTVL
B9: antibody 326 (antibody, V domains shown)
VH: QITLKESGPTLVKPTQTLTLTCTFSGFSLNTSGVGVGWIRQPPGKALEWLSLIFWNDDKRYSPSLRSRLTITKDTSKNQVVLTMTNMDPVDTATYFCAHRNSGWSLKFDSWGQGSLVTVSA
VL: DIQMTQSPSSVSASVGDRVTITCRARQGISSWLVWYQQKPGKAPKLLIFGASSLQSGVPSRFNASGTGTEFTLTISSLQPEDFATYYCQQADSFPITFGQGTRLEIK
B10: antibody 324 (antibody, V domains shown)
VH: QVQLQESGPGLVKPSGTLSLTCAVSGGSISSSNWWSWVRQPPGKGLEWIGEIYHSGSTNYNPSLKSRVTISVDNSKNQFSLKLSSVTAADTAVYYCARESVAAAGISYYYYGMDVWGQGTTVTVSS
VL: EIVLTQSPGTLSLSPGERATLSCRASQSVSGRYLAWYQQKPGQAPRLLIYGASSRATGIPDRFSGSGSGTDFTLTISRLEPEDFAVYYCQHYGSSPGTFGQGTRLEIK
B11: antibody 323 (antibody, V domains shown)
VH: QVQLVQSGAEVKKPGASVKVSCKVSGYTLTELSMHWVRQAPGKGLEWMGGFDPEDGETIYAQKFQGRVTMTEDTSTDTAYMELSSLRSEDTAVYYCATSTIFAPGGWFDPWGQGTLVTVSS
VL: QSALTQPASVSGSPGQSITISCTGTSSDVGSYNLVSWYQQHPGKAPKLMIYEVSKRPSGVSNRFSGSKSGNTASLTISGLQAEDEADYYCCSYAGSTHYVFGTGTKVTVL
B12: antibody 331 (antibody, V domains shown)
V domain 1: QITLKESGPTLVKPTETLTLTCSFSGFSLTKTGEAAGWIRQAPGRALEWVTVIFWDDDKRYSPSLQNRISVTKDTSKNQVVLRMTNVARFDTGTYFCWAMGGPGKEYFGQGTLVAVSS
V domain 2: QSVLTQPPSVSGAPGQRVTISCTGTSSSIGPYSDVHWYQHVSGKAPRLLIFGNSNRPSGVPDRFSGSKSGTSASLVIAGLQAEDEADYYCQSYDSSLGEIYVFGTGTTVTVL
B13: antibody 339 (antibody, V domains shown)
V domain 1: B12 V domain 1 with K31R, N67S, I69L, S70T, R83T, G93A, L113Q
V domain 2: B12 V domain 2
B14: antibody 343 (antibody, V domains shown)
VH: QVQLVESGGDVVQPGTSLRLSCAASGFTFNNYGFHWVRQAPGKGLEWVALISSDGASTHYADSVKGRFTISRDSSVNTLYLQMNSLSLEDTAVYYCATGHCGTTCYYFDYWGQGTLVSVSS
VL: DIQVTQSPSYLSASVGDRVTITCRASQTISTFLQWYQQKVGKAPKLLIYAASTLQSGVPSRFSGSGSGTDFSLTISSLQPEDFATYYCQQSYSAPLSFGGGTKVEIK
B15: antibody 351 (antibody, V domains shown)
VH: HVQLVESGGGVVQPGRSLRLSCAASGFISRNYGMEWVRQAPGQGLEWVAGIWYDGSKKYYADSVKGRFTISRDTSKNTLFLQMDSLRAEDTAVFYCATATKTFCGGDCPPGGMDVWGQGTTVTVST
VL: SYVLTQPPSVSVAPGKTAWITCVGNNIESESVHWYQQRPGQAPVLVIYYDSDRPSGIPERFFGSNSGNTATLTISRVEAGDEADYYCQVWDSNSDLMVFGGGTKLTVL
B16: antibody 345 (antibody, V domains shown)
VH: QVQLQESGPGLVKPSQTLSLTCTVSGGSISSGDYYWSWIRQPPGKGLEWIGYIYYSGSTYYNPSLKSRVTISVDTSKNQFSLKLSSVTAADTAVYYCARVGMVDNWNFEGNWFDPWGQGTLVTVSS
VL: QSALTQPRSVSGSPGQSVTISCTGTSSDVGGYNYVSWYQQHPGKAPKLMIYDVSKRPSGVPDRFSGSKSGNTASLTISGLQAEDEADYYCCSYAGSVVFGGGTKLTVL
B17: antibody 340 (antibody, V domains shown)
VH: QVQLVQSGAEVKKPGASVKVSCKASGYTFTSYDINWVRQATGQGLEWMGWMNPNSGNTGYAQKFQGRVTMTRNTSISTAYMELSSLRSEDTAVYYCARGRYCTGGVCWGDWYFDLWGRGTLVTVSS
VL: QSVLTQPPSVSGAPGQRVTISCTGSSSNIGAGYDVHWYQQLPGTAPKFLIYGNSNRPSGVPDRFSGSKSGTSASLAITGLQAEDEADYYCQSYDSSLSGPVFGGGTKLTVL

Each binder was assayed against SARS-CoV-2 spike (S) protein, full length, wild type, expressed on the surface of CHO cells (SARS-CoV-2, UniProt P0DTC2 14-1273).

Going from B1 to B2, the “median fluorescence fold over isotype” value rises from 1.27 fold over isotype to 8.97 fold over isotype.

First: B3
Second: B4
The “median fluorescence fold over isotype” value of the first is lower: 9.41 fold over isotype for the first, 10.7 fold over isotype for the second.

Compared with B5, B6 is lower in “median fluorescence fold over isotype” value: 9.54 fold over isotype for the first, 7.55 fold over isotype for the second.

Compared with B7, B8 is higher in “median fluorescence fold over isotype” value: 16.8 fold over isotype for the first, 19.6 fold over isotype for the second.

First: B9
Second: B10
The “median fluorescence fold over isotype” value of the first is higher: 10.1 fold over isotype for the first, 9.44 fold over isotype for the second.

First: B11
Second: B12
The “median fluorescence fold over isotype” value of the first is higher: 20.6 fold over isotype for the first, 20.1 fold over isotype for the second.

Going from B13 to B14, the “median fluorescence fold over isotype” value falls from 21.2 fold over isotype to 1.12 fold over isotype.

Going from B15 to B16, the “median fluorescence fold over isotype” value rises from 1.06 fold over isotype to 11.7 fold over isotype.

In the case of B17, the “median fluorescence fold over isotype” value is reported as 33.2 fold over isotype.
